Assay results reported in patent publication US20130171059A1 (AbbVie / Abbott, published 2013).

T1: Recombinant Human SOST (human, UniProt Q9BQB4 24-213)
T1 sequence (looked up): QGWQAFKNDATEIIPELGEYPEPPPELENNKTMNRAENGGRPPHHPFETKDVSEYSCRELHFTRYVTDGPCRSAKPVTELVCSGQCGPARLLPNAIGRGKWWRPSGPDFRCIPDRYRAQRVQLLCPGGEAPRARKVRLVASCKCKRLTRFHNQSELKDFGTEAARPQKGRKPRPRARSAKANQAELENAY

B1: DVD1985 (bispecific antibody)
DVD-H: DIQMTQSPSSLSASVGDRVTITCRASQSISNNLNWYQQKPGKAPKLLIYYTSRFHSGVPSRFSGSGSGTDFTFTISSLQPEDIATYYCQQEHTLPYTFGQGTKLEIKRTVAAPQVQLVESGGGVVQPGRSLRLSCAASGFTFSSYDMHWVRQAPGKGLEWVAVIWSDGSIKYYADSVKGRFTISRDNSKNTLYLQMNSLRAEDTAVYYCAREVESAMGGFYYNGMDVWGQGTTVTVSS
DVD-L: QVQLQESGPGLVKPSETLSLTCTVSGFSLIGYDLNWIRQPPGKGLEWIGIIWGDGTTDYNSAVKSRVTISKDTSKNQFSLKLSSVTAADTAVYYCARGGYWYATSYYFDYWGQGTLVTVSSASTKGPDIQMTQSPSSLSASVGDRVTITCRASQGIRIDLGWYQQKPGKAPKRLIYAASTLQSGVPSRFSGSGSGTEFIFTISSLQPEDFASYYCLQHKSYPLTFGGGTKVEIK
notes: VH/VL crossover DVD-Ig; also called DVD1985H + DVD1985L; copies: 2 + 2
B2: DVD1990 (bispecific antibody)
DVD-H: EIVMTQSPATLSVSPGERATLSCRASQSVSSNLAWYQQKPGQAPRLLIHGASIRATGLPARFSGSGSGTEFTLTISSLQSEDFAVYYCQQYNYWWTFGQGTKVEIKRTVAAPEVQLQQSGPELVTPGASVKISCKASGYTFTDHYMSWVKQSHGKSLEWIGDINPYSGETTYNQKFKGTATLTVDKSSSIAYMEIRGLTSEDSAVYYCARDDYDASPFAYWGQGTLVTVSA
DVD-L: EVQLVESGGGLIQPGGSLRLSCAASGFTVSRNYMSWVRQAPGKGLEWVSVIYSGDRTYYADSVKGRFTISRDNSKNTLYLQMNSLRAEDTAVYYCARGEGGFDYWGQGTLVTVSSASTKGPDVQMIQSPSSLSASLGDIVTMTCQASQGTSINLNWFQQKPGKAPKLLIYGSSNLEDGVPSRFSGSRYGTDFTLTISSLEDEDLATYFCLQHSYLPYTFGGGTKLEIK
notes: VH/VL crossover DVD-Ig; also called DVD1990H + DVD1990L; copies: 2 + 2
B3: AB213 (antibody, V domains shown)
VH: QVQLKESGPGLVAPSQSLSITCTVSGFSLTDYGVNWVRQPPGKGLEWLGMIWGDGSTDYDSTLKSRLSISKDNSKSQIFLKMNSLQTDDTARYYCAREWHHGPVAYWGQGTLVTVSA
VL: DIVMTQSHKFMSTTVGDRVSITCKASQAVSSAVAWYQQKPGQSPKLLIYWASTRHTGVPDRFTGSGSVTDFTLTIHNLQAEDLALYYCQQHYSTPFTFGSGTKLEIKR
notes: Parent antibody
B4: DVD1983 (bispecific antibody, not shown: a dimerising Fc or GST)
heavy: DVQMIQSPSSLSASLGDIVTMTCQASQGTSINLNWFQQKPGKAPKLLIYGSSNLEDGVPSRFSGSRYGTDFTLTISSLEDEDLATYFCLQHSYLPYTFGGGTKLEIKRTVAAPQVQLVESGGGVVQPGRSLRLSCAASGFTFSSYDMHWVRQAPGKGLEWVAVIWSDGSIKYYADSVKGRFTISRDNSKNTLYLQMNSLRAEDTAVYYCAREVESAMGGFYYNGMDVWGQGTTVTVSS
light: EVQLQQSGPELVTPGASVKISCKASGYTFTDHYMSWVKQSHGKSLEWIGDINPYSGETTYNQKFKGTATLTVDKSSSIAYMEIRGLTSEDSAVYYCARDDYDASPFAYWGQGTLVTVSAASTKGPDIQMTQSPSSLSASVGDRVTITCRASQGIRIDLGWYQQKPGKAPKRLIYAASTLQSGVPSRFSGSGSGTEFIFTISSLQPEDFASYYCLQHKSYPLTFGGGTKVEIKR
B5: AB217 (antibody, V domains shown)
VH: QVQLVESGGGVVQPGRSLRLSCAASGFTFSSYDMHWVRQAPGKGLEWVAVIWSDGSIKYYADSVKGRFTISRDNSKNTLYLQMNSLRAEDTAVYYCAREVESAMGGFYYNGMDVWGQGTTVTVSS
VL: DIQMTQSPSSLSASVGDRVTITCRASQGIRIDLGWYQQKPGKAPKRLIYAASTLQSGVPSRFSGSGSGTEFIFTISSLQPEDFASYYCLQHKSYPLTFGGGTKVEIKR
notes: Parent antibody
B6: AB022 (antibody, V domains shown)
VH: EVQLQQSGPELVTPGASVKISCKASGYTFTDHYMSWVKQSHGKSLEWIGDINPYSGETTYNQKFKGTATLTVDKSSSIAYMEIRGLTSEDSAVYYCARDDYDASPFAYWGQGTLVTVSA
VL: DVQMIQSPSSLSASLGDIVTMTCQASQGTSINLNWFQQKPGKAPKLLIYGSSNLEDGVPSRFSGSRYGTDFTLTISSLEDEDLATYFCLQHSYLPYTFGGGTKLEIKR
notes: Parent antibody; also called SOST parent antibody
B7: DVD1959 (bispecific antibody, not shown: a dimerising Fc or GST)
heavy: DVQMIQSPSSLSASLGDIVTMTCQASQGTSINLNWFQQKPGKAPKLLIYGSSNLEDGVPSRFSGSRYGTDFTLTISSLEDEDLATYFCLQHSYLPYTFGGGTKLEIKRTVAAPQVQLKESGPGLVAPSQSLSITCTVSGFSLTDYGVNWVRQPPGKGLEWLGMIWGDGSTDYDSTLKSRLSISKDNSKSQIFLKMNSLQTDDTARYYCAREWHHGPVAYWGQGTLVTVSA
light: EVQLQQSGPELVTPGASVKISCKASGYTFTDHYMSWVKQSHGKSLEWIGDINPYSGETTYNQKFKGTATLTVDKSSSIAYMEIRGLTSEDSAVYYCARDDYDASPFAYWGQGTLVTVSAASTKGPDIVMTQSHKFMSTTVGDRVSITCKASQAVSSAVAWYQQKPGQSPKLLIYWASTRHTGVPDRFTGSGSVTDFTLTIHNLQAEDLALYYCQQHYSTPFTFGSGTKLEIKR
B8: DVD1982 (bispecific antibody, not shown: a dimerising Fc or GST)
heavy: DIQMTQSPSSLSASVGDRVTITCRASQGIRIDLGWYQQKPGKAPKRLIYAASTLQSGVPSRFSGSGSGTEFIFTISSLQPEDFASYYCLQHKSYPLTFGGGTKVEIKRTVAAPEVQLQQSGPELVTPGASVKISCKASGYTFTDHYMSWVKQSHGKSLEWIGDINPYSGETTYNQKFKGTATLTVDKSSSIAYMEIRGLTSEDSAVYYCARDDYDASPFAYWGQGTLVTVSA
light: QVQLVESGGGVVQPGRSLRLSCAASGFTFSSYDMHWVRQAPGKGLEWVAVIWSDGSIKYYADSVKGRFTISRDNSKNTLYLQMNSLRAEDTAVYYCAREVESAMGGFYYNGMDVWGQGTTVTVSSASTKGPDVQMIQSPSSLSASLGDIVTMTCQASQGTSINLNWFQQKPGKAPKLLIYGSSNLEDGVPSRFSGSRYGTDFTLTISSLEDEDLATYFCLQHSYLPYTFGGGTKLEIKR
B9: DVD1993 (bispecific antibody)
DVD-H: DIQMTQSPSSLSASVGDRVTITCRASQSISNNLNWYQQKPGKAPKLLIYYTSRFHSGVPSRFSGSGSGTDFTFTISSLQPEDIATYYCQQEHTLPYTFGQGTKLEIKRTVAAPEVQLVESGGGLIQPGGSLRLSCAASGFTVSRNYMSWVRQAPGKGLEWVSVIYSGDRTYYADSVKGRFTISRDNSKNTLYLQMNSLRAEDTAVYYCARGEGGFDYWGQGTLVTVSS
DVD-L: QVQLQESGPGLVKPSETLSLTCTVSGFSLIGYDLNWIRQPPGKGLEWIGIIWGDGTTDYNSAVKSRVTISKDTSKNQFSLKLSSVTAADTAVYYCARGGYWYATSYYFDYWGQGTLVTVSSASTKGPEIVMTQSPATLSVSPGERATLSCRASQSVSSNLAWYQQKPGQAPRLLIHGASIRATGLPARFSGSGSGTEFTLTISSLQSEDFAVYYCQQYNYWWTFGQGTKVEIK
notes: VH/VL crossover DVD-Ig; also called DVD1993H + DVD1993L; copies: 2 + 2
B10: AB218 (antibody, V domains shown)
VH: EVQLVESGGGLIQPGGSLRLSCAASGFTVSRNYMSWVRQAPGKGLEWVSVIYSGDRTYYADSVKGRFTISRDNSKNTLYLQMNSLRAEDTAVYYCARGEGGFDYWGQGTLVTVSS
VL: EIVMTQSPATLSVSPGERATLSCRASQSVSSNLAWYQQKPGQAPRLLIHGASIRATGLPARFSGSGSGTEFTLTISSLQSEDFAVYYCQQYNYWWTFGQGTKVEIKR
notes: Parent antibody

What was measured:
[1] = target: T2, Recombinant Human TNF-α/TNFSF1A (human, UniProt P01375 77-233); test: cell-based or functional assay
T2 sequence (P01375 77-233 limits assumed): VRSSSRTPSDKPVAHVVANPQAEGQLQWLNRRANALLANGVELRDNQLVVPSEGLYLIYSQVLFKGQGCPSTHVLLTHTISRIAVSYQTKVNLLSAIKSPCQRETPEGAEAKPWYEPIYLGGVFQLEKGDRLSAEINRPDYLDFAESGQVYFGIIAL

Recombinant Human β-NGF = target: T3, Recombinant Human β-NGF (human, UniProt P01138 122-239, limits assumed); test: SPR (Biacore)
T3 construct: Bought reagent for Biacore; also called huNGF; NGF (Rinat)
T3 sequence (P01138 122-239 limits assumed): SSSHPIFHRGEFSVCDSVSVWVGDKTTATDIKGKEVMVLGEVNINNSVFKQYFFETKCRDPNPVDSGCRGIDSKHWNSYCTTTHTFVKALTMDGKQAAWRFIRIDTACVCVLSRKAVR
Experimental: (§1) The BIACORE assay (Biacore, Inc, Piscataway, N.J.) determined the affinity of antibodies or DVD-Ig proteins with kinetic measurements of on-rate and off-rate constants. Binding of antibodies or DVD-Ig proteins to a target antigen (for example, a purified recombinant target antigen) was determined by surface plasmon resonance-based measurements with a Biacore® 1000 or 3000 instrument (Biacore® AB, Uppsala, Sweden) using running HBS-EP (10 mM HEPES [pH 7.4], 150 mM NaCl, 3 mM EDTA, and 0.005% surfactant P20) at 25° C. All chemicals were obtained from Biacore® AB (Uppsala, Sweden) or otherwise from a different source as described in the text. For example, approximately 5000 RU of goat anti-mouse IgG, (Fcγ), fragment specific polyclonal antibody (Pierce Biotechnology Inc, Rockford, Ill.) diluted in 10 mM sodium acetate (pH 4.5) was directly immobilized across a CM5 research grade biosensor chip using a standard amine coupling kit according to manufacturer's instructions and procedures at 25 μg/ml. Unreacted moieties on the biosensor surface were blocked with ethanolamine. Modified carboxymethyl dextran surface in flowcell 2 and 4 was used as a reaction surface. Unmodified carboxymethyl dextran without goat anti-mouse IgG in flow cell 1 and 3 was used as the reference surface. For kinetic analysis, rate equations derived from the 1:1 Langmuir binding model were fitted simultaneously to association and dissociation phases of all eight injections (using global fit analysis) with the use of Biaevaluation 4.0.1 software. Purified antibodies or DVD-Ig proteins were diluted in HEPES-buffered saline for capture across goat anti-mouse IgG specific reaction surfaces. Antibodies or DVD-Ig proteins to be captured as a ligand (25 μg/ml) were injected over reaction matrices at a flow rate of 5 μl/minute. The association and dissociation rate constants, kₒₙ (M⁻¹s⁻¹) and koff (s⁻¹) were determined under a continuous flow rate of 25 μl/minute. Rate constants were derived by making kinetic binding measurements at different antigen concentrations ranging from 10-200 nM. The equilibrium dissociation constant (M) of the reaction between antibodies or DVD-Ig proteins and the target antigen was then calculated from the kinetic rate constants by the following formula: KD=koff/kₒₙ. Binding was recorded as a function of time and kinetic rate constants were calculated.

[2] = target: T2, Recombinant Human TNF-α/TNFSF1A; test: SPR (Biacore)
Experimental: as §1

Recombinant Human SOST [3] = target: T1, Recombinant Human SOST; test: cell-based or functional assay
Recombinant Human SOST [4] = target: T1, Recombinant Human SOST; test: SPR (Biacore)
Experimental: as §1

Row | Binder | C-Terminal VD TNFα Neutralization Assay IC50 (L929 cells) [1] | Kd [2] | koff [2] | kon [2] | TNFα Neutralization Assay IC50 (L929 cells) [1] | further results
1 | B1 | 4.51 nM | 0.43 nM | 1.9e-05 s⁻¹ | 45000 M⁻¹ s⁻¹ |  | Kd (Recombinant Human β-NGF): 0.012 nM; koff (Recombinant Human β-NGF): 3.7e-05 s⁻¹; kon (Recombinant Human β-NGF): 3.1e+06 M⁻¹ s⁻¹
2 | B2 |  | 0.016 nM | 4.5e-05 s⁻¹ | 2.8e+06 M⁻¹ s⁻¹ |  | C-Terminal VD SOST Neutralization Assay IC50 (Wnt-1/luciferase HEK clone #14) (Recombinant Human SOST [3]): > 250 nM; N-Terminal VD TNFa Neutralization Assay IC50 (L929 cells) [1]: 0.408 nM; Kd (Recombinant Human SOST [4]): 0.33 nM; koff (Recombinant Human SOST [4]): 0.00058 s⁻¹; kon (Recombinant Human SOST [4]): 1.8e+06 M⁻¹ s⁻¹
3 | B3 |  | 0.025 nM | 8.2e-05 s⁻¹ | 3.2e+06 M⁻¹ s⁻¹ | 0.244 nM | 
4 | B4 | 0.127 nM |  |  |  |  | N-Terminal VD SOST Neutralization Assay IC50 (Wnt-1/luciferase HEK clone #14) (Recombinant Human SOST [3]): > 360 nM
5 | B5 |  | 0.028 nM | 4.8e-05 s⁻¹ | 1.7e+06 M⁻¹ s⁻¹ | 0.313 nM | 
6 | B6 |  |  |  |  |  | SOST Neutralization Assay IC50 (Wnt-1/luciferase HEK clone #14) (Recombinant Human SOST [3]): 34.8 nM; Kd (Recombinant Human SOST [4]): 0.018 nM; koff (Recombinant Human SOST [4]): 0.00038 s⁻¹; kon (Recombinant Human SOST [4]): 2.1e+07 M⁻¹ s⁻¹
7 | B7 | 1.52 nM |  |  |  |  | N-Terminal VD SOST Neutralization Assay IC50 (Wnt-1/luciferase HEK clone #14) (Recombinant Human SOST [3]): 54.2 nM
8 | B8 |  |  |  |  |  | C-Terminal VD SOST Neutralization Assay IC50 (Wnt-1/luciferase HEK clone #14) (Recombinant Human SOST [3]): > 100 nM; N-Terminal VD TNFa Neutralization Assay IC50 (L929 cells) [1]: 0.017 nM
9 | B9 | 2.08 nM | 0.43 nM | 3.5e-05 s⁻¹ | 81000 M⁻¹ s⁻¹ |  | Kd (Recombinant Human β-NGF): 0.0047 nM; koff (Recombinant Human β-NGF): 1.5e-05 s⁻¹; kon (Recombinant Human β-NGF): 3.3e+06 M⁻¹ s⁻¹
10 | B10 |  | 0.041 nM | 7.3e-05 s⁻¹ | 1.8e+06 M⁻¹ s⁻¹ | 0.179 nM | 
